Test results from US20030077226.

T1: synthetic peptide substrate containing the Swedish KM→NL mutation (SEVNLDAEFR)
T1 chain: SEVNLDAEFR

T2: synthetic peptide substrate containing the wild-type APP β-secretase site (SEVKMDAEFR)
T2 chain: SEVKMDAEFR

B1: Hu-Asp2(b) expressed in CHO cells (protein)
chain: TQHGIRLPLRSGLGGAPLGLRLPRETDEEPEEPGRRGSFVEMVDNLRGKSGQGYYVEMTVGSPPQTLNILVDTGSSNFAVGAAPHPFLHRYYQRQLSSTYRDLRKGVYVPYTQGKWEGELGTDLVSIPHGPNVTVRANIAAITESDKFFINGSNWEGILGLAYAEIARLCGAGFPLNQSEVLASVGGSMIIGGIDHSLYTGSLWYTPIRREWYYEVIIVRVEINGQDLKMDCKEYNYDKSIVDSGTTNLRLPKKVFEAAVKSIKAASSTEKFPDGFWLGEQLVCWQAGTTPWNIFPVISLYLMGEVTNQSFRITILPQQYLRPVEDVATSQDDCYKFAISQSSTGTVMGAVIMEGFYVVFDRARKRIGFAVSACHVHDEFRTAAVEGPFVTLDMEDCGYNIPQTDESTLMTIAYVMAAICALFMLPLCLMVCQWRCLRCLRQQHDDFADDISLLK
B2: Recombinant human Asp2(a) prepared in CHO cells (protein)
chain: ETDEEPEEPGRRGSFVEMVDNLRGKSGQGYYVEMTVGSPPQTLNILVDTGSSNFAVGAAPHPFLHRYYQRQLSSTYRDLRKGVYVPYTQGKWEGELGTDLVSIPHGPNVTVRANIAAITESDKFFINGSNWEGILGLAYAEIARPDDSLEPFFDSLVKQTHVPNLFSLHLCGAGFPLNQSEVLASVGGSMIIGGIDHSLYTGSLWYTPIRREWYYEVIIVRVEINGQDLKMDCKEYNYDKSIVDSGTTNLRLPKKVFEAAVKSIKAASSTEKFPDGFWLGEQLVCWQAGTTPWNIFPVISLYLMGEVTNQSFRITILPQQYLRPVEDVATSQDDCYKFAISQSSTGTVMGAVIMEGFYVVFDRARKRIGFAVSACHVHDEFRTAAVEGPFVTLDMEDCGYNIPQTDESTLMTIAYVMAAICALFMLPLCLMVCQWRCLRCLRQQHDDFADDISLLK

Columns and labels:
[1] = biological target: T1, synthetic peptide substrate containing …
[2] = biological target: T2, synthetic peptide substrate containing …

Protein	proteolysis of peptide substrate (RP-HPLC) [1]	proteolysis of peptide substrate (percent hydrolysis by RP-HPLC), Swedish peptide against wild type after 6 hours [1]	proteolysis of peptide substrate (percent hydrolysis by RP-HPLC) [2]
B1	also cleaves the Swedish β-secretase peptide in proteolysis assays using identical assay conditions	–	–
B2	–	about 10-fold higher than wild type APP	Maximal proteolysis was seen with the Swedigh β-secretase peptide, which, after 6 hours, was about 10-fold higher than wild type APP
